Literature values in PMC6085760.

Target: Amyloid-β (Homo sapiens) (UniProt P05067)
Sequence (P05067 672-711): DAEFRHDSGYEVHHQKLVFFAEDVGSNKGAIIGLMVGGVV

Kd: 156 µM
Substance: LPFFD peptide
